Data from US20240400675A1 (published 2024).
Where two headings read alike, the source gives them in different places.

T1: human CLDN6 (UniProt P56747 1-220)
T1 chain: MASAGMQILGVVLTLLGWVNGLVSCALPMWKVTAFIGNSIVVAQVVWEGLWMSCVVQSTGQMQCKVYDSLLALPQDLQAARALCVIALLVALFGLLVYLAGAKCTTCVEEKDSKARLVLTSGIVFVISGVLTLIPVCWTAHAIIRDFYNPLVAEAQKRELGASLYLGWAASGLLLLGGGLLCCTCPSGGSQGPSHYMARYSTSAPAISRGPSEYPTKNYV

T2: mouse CLDN6 (mouse, UniProt Q9Z262 1-219)
T2 chain: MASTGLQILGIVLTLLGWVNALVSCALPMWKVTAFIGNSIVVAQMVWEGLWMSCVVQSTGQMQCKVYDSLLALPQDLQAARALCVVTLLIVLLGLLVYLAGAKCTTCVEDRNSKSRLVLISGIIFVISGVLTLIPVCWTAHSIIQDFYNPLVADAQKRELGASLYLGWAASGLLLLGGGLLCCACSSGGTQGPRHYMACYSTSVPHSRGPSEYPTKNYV

T3: cyno CLDN6
T3 chain: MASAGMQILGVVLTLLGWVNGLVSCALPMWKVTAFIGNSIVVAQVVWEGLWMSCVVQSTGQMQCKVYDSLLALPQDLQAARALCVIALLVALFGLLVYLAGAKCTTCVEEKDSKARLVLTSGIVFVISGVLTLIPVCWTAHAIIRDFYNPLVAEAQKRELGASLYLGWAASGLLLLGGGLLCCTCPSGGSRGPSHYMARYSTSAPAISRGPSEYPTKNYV

T4: CLDN6 I143V isotype (UniProt P56747 1-220)
T4 chain: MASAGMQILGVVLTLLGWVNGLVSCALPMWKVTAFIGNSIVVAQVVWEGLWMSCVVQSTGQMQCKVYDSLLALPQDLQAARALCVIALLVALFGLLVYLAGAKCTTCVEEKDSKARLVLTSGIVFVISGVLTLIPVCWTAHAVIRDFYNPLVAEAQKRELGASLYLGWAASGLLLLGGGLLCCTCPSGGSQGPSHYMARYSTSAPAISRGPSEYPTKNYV

T5: human CLDN9 (UniProt O95484 1-217)
T5 chain: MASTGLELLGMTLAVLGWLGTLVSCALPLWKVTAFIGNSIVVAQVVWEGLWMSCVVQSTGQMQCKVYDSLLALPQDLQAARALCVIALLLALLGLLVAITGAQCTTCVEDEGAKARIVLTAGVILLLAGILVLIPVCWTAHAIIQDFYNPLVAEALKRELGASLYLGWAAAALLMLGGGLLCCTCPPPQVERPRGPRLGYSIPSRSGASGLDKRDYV


Columns and labels:
Assay in all cases: flow cytometry, HEK293E cells
human CLDN6 [1] = molecular target: T1, human CLDN6
mouse CLDN6 [2] = molecular target: T2, mouse CLDN6
cyno CLDN6 [3] = molecular target: T3, cyno CLDN6
human CLDN6 [4] = molecular target: T1, human CLDN6
CLDN6 I143V isotype [5] = molecular target: T4, CLDN6 I143V isotype
human CLDN9 [6] = molecular target: T5, human CLDN9
human CLDN6 [7] = molecular target: T1, human CLDN6
CLDN6 I143V isotype [8] = molecular target: T4, CLDN6 I143V isotype
human CLDN9 [9] = molecular target: T5, human CLDN9
human CLDN6 [10] = molecular target: T1, human CLDN6
mouse CLDN6 [11] = molecular target: T2, mouse CLDN6
cyno CLDN6 [12] = molecular target: T3, cyno CLDN6

Binder	EC50 (human CLDN6 [1])	EC50 (mouse CLDN6 [2])	EC50 (cyno CLDN6 [3])	EC50 (human CLDN6 [4])	EC50 (CLDN6 I143V isotype [5])	EC50 (human CLDN9 [6])	EC50 (human CLDN6 [7])	EC50 (CLDN6 I143V isotype [8])	EC50 (human CLDN9 [9])	EC50 (human CLDN6 [10])	EC50 (mouse CLDN6 [11])	EC50 (cyno CLDN6 [12])
XENP34233 (C6-30_H1L1 x CD3 bsAb in the 2+1 Fab2-scFv-Fc format) (bispecific antibody) heavy 1: QVQLVQSGAEVKKPGASVKVSCKTSGYTFTEYTMHWVRQAPGQSLEWMGGIDPNNGNTHYNQKFQGRVTITVDKSASTAYMELSSLRSEDTAVYYCARIYYFGRLYFDFWGAGTLVTVSSASTKGPSVFPLAPSSKSTSGGTAALGCLVKDYFPEPVTVSWNSGALTSGVHTFPAVLQSSGLYSLSSVVTVPSSSLGTQTYICNVNHKPSDTKVDKKVEPKSCDKTHTCPPCPAPPVAGPSVFLFPPKPKDTLMISRTPEVTCVVVDVKHEDPEVKFNWYVDGVEVHNAKTKPREEEYNSTYRVVSVLTVLHQDWLNGKEYKCKVSNKALPAPIEKTISKAKGQPREPQVYTLPPSREEMTKNQVSLTCDVSGFYPSDIAVEWESDGQPENNYKTTPPVLDSDGSFFLYSKLTVDKSRWEQGDVFSCSVMHEALHNHYTQKSLSLSPGK heavy 2: QVQLVQSGAEVKKPGASVKVSCKTSGYTFTEYTMHWVRQAPGQSLEWMGGIDPNNGNTHYNQKFQGRVTITVDKSASTAYMELSSLRSEDTAVYYCARIYYFGRLYFDFWGAGTLVTVSSASTKGPSVFPLAPSSKSTSGGTAALGCLVKDYFPEPVTVSWNSGALTSGVHTFPAVLQSSGLYSLSSVVTVPSSSLGTQTYICNVNHKPSNTKVDKKVEPKSCGGGGSGGGGSQAVVTQEPSLTVSPGGTVTLTCGSSTGAVTTSNYANWVQQKPGKSPRGLIGGTNKRAPGVPARFSGSLLGGKAALTISGAQPEDEADYYCALWYSNHWVFGGGTKLTVLGKPGSGKPGSGKPGSGKPGSEVQLVESGGGLVQPGGSLRLSCAASGFTFSTYAMNWVRQAPGKGLEWVGRIRSKYNNYATYYADSVKGRFTISRDDSKNTLYLQMNSLRAEDTAVYYCVRHGNFGDSYVSWFAYWGQGTLVTVSSGGGGSGGGGSKTHTCPPCPAPPVAGPSVFLFPPKPKDTLMISRTPEVTCVVVDVKHEDPEVKFNWYVDGVEVHNAKTKPREEQYNSTYRVVSVLTVLHQDWLNGKEYKCKVSNKALPAPIEKTISKAKGQPREPQVYTLPPSREQMTKNQVKLTCLVKGFYPSDIAVEWESNGQPENNYKTTPPVLDSDGSFFLYSKLTVDKSRWQQGNVFSCSVMHEALHNHYTQKSLSLSPGK light: not shown	–	–	–	–	–	–	0.359 µg/mL	0.329 µg/mL	6.73 µg/mL	0.224 µg/mL	0.664 µg/mL	0.316 µg/mL
XENP34229 (C6-30_H1L1 x CD3 bsAb in the 1+1 Fab-scFv-Fc format) (bispecific antibody) heavy: QVQLVQSGAEVKKPGASVKVSCKTSGYTFTEYTMHWVRQAPGQSLEWMGGIDPNNGNTHYNQKFQGRVTITVDKSASTAYMELSSLRSEDTAVYYCARIYYFGRLYFDFWGAGTLVTVSSASTKGPSVFPLAPSSKSTSGGTAALGCLVKDYFPEPVTVSWNSGALTSGVHTFPAVLQSSGLYSLSSVVTVPSSSLGTQTYICNVNHKPSDTKVDKKVEPKSCDKTHTCPPCPAPPVAGPSVFLFPPKPKDTLMISRTPEVTCVVVDVKHEDPEVKFNWYVDGVEVHNAKTKPREEEYNSTYRVVSVLTVLHQDWLNGKEYKCKVSNKALPAPIEKTISKAKGQPREPQVYTLPPSREEMTKNQVSLTCDVSGFYPSDIAVEWESDGQPENNYKTTPPVLDSDGSFFLYSKLTVDKSRWEQGDVFSCSVMHEALHNHYTQKSLSLSPGK scFv-Fc: QAVVTQEPSLTVSPGGTVTLTCGSSTGAVTTSNYANWVQQKPGKSPRGLIGGTNKRAPGVPARFSGSLLGGKAALTISGAQPEDEADYYCALWYSNHWVFGGGTKLTVLGKPGSGKPGSGKPGSGKPGSEVQLVESGGGLVQPGGSLRLSCAASGFTFSTYAMNWVRQAPGKGLEWVGRIRSKYNNYATYYADSVKGRFTISRDDSKNTLYLQMNSLRAEDTAVYYCVRHGNFGDSYVSWFAYWGQGTLVTVSSEPKSSDKTHTCPPCPAPPVAGPSVFLFPPKPKDTLMISRTPEVTCVVVDVKHEDPEVKFNWYVDGVEVHNAKTKPREEQYNSTYRVVSVLTVLHQDWLNGKEYKCKVSNKALPAPIEKTISKAKGQPREPQVYTLPPSREQMTKNQVKLTCLVKGFYPSDIAVEWESNGQPENNYKTTPPVLDSDGSFFLYSKLTVDKSRWQQGNVFSCSVMHEALHNHYTQKSLSLSPGK light: not shown	–	–	–	–	–	–	6.49 µg/mL	5.58 µg/mL	78.8 µg/mL	3.48 µg/mL	12 µg/mL	5.65 µg/mL

The remaining lines, values ahead:

EC50 (human CLDN6 [1])	EC50 (mouse CLDN6 [2])	EC50 (cyno CLDN6 [3])	EC50 (human CLDN6 [4])	EC50 (CLDN6 I143V isotype [5])	EC50 (human CLDN9 [6])	EC50 (human CLDN6 [7])	EC50 (CLDN6 I143V isotype [8])	EC50 (human CLDN9 [9])	EC50 (human CLDN6 [10])	EC50 (mouse CLDN6 [11])	EC50 (cyno CLDN6 [12])	Binder
2.38 µg/mL	6.71 µg/mL	3.19 µg/mL	20.6 µg/mL	12.9 µg/mL	137 µg/mL	–	–	–	–	–	–	XENP34637 (C6-30_H2L1 x CD3 bsAb in the 1+1 Fab-scFv-Fc format) (bispecific antibody) heavy: EVQLVQSGAEVKKPGESLRISCKTSGYTFTEYTMHWVRQMPGKSLEWMGGIDPNNGNTHYNQKFQGHVTISVDKSISTAYLQWSSLKASDTAMYYCARIYYFGRLYFDFWGAGTLVTVSSASTKGPSVFPLAPSSKSTSGGTAALGCLVKDYFPEPVTVSWNSGALTSGVHTFPAVLQSSGLYSLSSVVTVPSSSLGTQTYICNVNHKPSDTKVDKKVEPKSCDKTHTCPPCPAPPVAGPSVFLFPPKPKDTLMISRTPEVTCVVVDVKHEDPEVKFNWYVDGVEVHNAKTKPREEEYNSTYRVVSVLTVLHQDWLNGKEYKCKVSNKALPAPIEKTISKAKGQPREPQVYTLPPSREEMTKNQVSLTCDVSGFYPSDIAVEWESDGQPENNYKTTPPVLDSDGSFFLYSKLTVDKSRWEQGDVFSCSVMHEALHNHYTQKSLSLSPGK scFv-Fc: not shown light: not shown
0.244 µg/mL	0.588 µg/mL	0.267 µg/mL	0.435 µg/mL	0.2 µg/mL	11.2 µg/mL	–	–	–	–	–	–	XENP34638 (C6-30_H2L1 x CD3 bsAb in the 2+1 Fab2-scFv-Fc format) (bispecific antibody) heavy 1: EVQLVQSGAEVKKPGESLRISCKTSGYTFTEYTMHWVRQMPGKSLEWMGGIDPNNGNTHYNQKFQGHVTISVDKSISTAYLQWSSLKASDTAMYYCARIYYFGRLYFDFWGAGTLVTVSSASTKGPSVFPLAPSSKSTSGGTAALGCLVKDYFPEPVTVSWNSGALTSGVHTFPAVLQSSGLYSLSSVVTVPSSSLGTQTYICNVNHKPSDTKVDKKVEPKSCDKTHTCPPCPAPPVAGPSVFLFPPKPKDTLMISRTPEVTCVVVDVKHEDPEVKFNWYVDGVEVHNAKTKPREEEYNSTYRVVSVLTVLHQDWLNGKEYKCKVSNKALPAPIEKTISKAKGQPREPQVYTLPPSREEMTKNQVSLTCDVSGFYPSDIAVEWESDGQPENNYKTTPPVLDSDGSFFLYSKLTVDKSRWEQGDVFSCSVMHEALHNHYTQKSLSLSPGK heavy 2: EVQLVQSGAEVKKPGESLRISCKTSGYTFTEYTMHWVRQMPGKSLEWMGGIDPNNGNTHYNQKFQGHVTISVDKSISTAYLQWSSLKASDTAMYYCARIYYFGRLYFDFWGAGTLVTVSSASTKGPSVFPLAPSSKSTSGGTAALGCLVKDYFPEPVTVSWNSGALTSGVHTFPAVLQSSGLYSLSSVVTVPSSSLGTQTYICNVNHKPSNTKVDKKVEPKSCGGGGSGGGGSQAVVTQEPSLTVSPGGTVTLTCGSSTGAVTTSNYANWVQQKPGKSPRGLIGGTNKRAPGVPARFSGSLLGGKAALTISGAQPEDEADYYCALWYSNHWVFGGGTKLTVLGKPGSGKPGSGKPGSGKPGSEVQLVESGGGLVQPGGSLRLSCAASGFTFSTYAMNWVRQAPGKGLEWVGRIRSKYNNYATYYADSVKGRFTISRDDSKNTLYLQMNSLRAEDTAVYYCVRHGNFGDSYVSWFAYWGQGTLVTVSSGGGGSGGGGSKTHTCPPCPAPPVAGPSVFLFPPKPKDTLMISRTPEVTCVVVDVKHEDPEVKFNWYVDGVEVHNAKTKPREEQYNSTYRVVSVLTVLHQDWLNGKEYKCKVSNKALPAPIEKTISKAKGQPREPQVYTLPPSREQMTKNQVKLTCLVKGFYPSDIAVEWESNGQPENNYKTTPPVLDSDGSFFLYSKLTVDKSRWQQGNVFSCSVMHEALHNHYTQKSLSLSPGK light: not shown
